The text below walks through data of US20090035320A1 (MIE UNIVERSITY, published 2009).

Numbering of substitutions follows the chain as printed.

To fix the notation:
T1: PCI-Flag (human, UniProt P05154 26-406, limits assumed)
T1 construct: Full-length human PCI ORF with a C-terminal Flag tag, secreted by CHO cells and purified from the culture supernatant; also called Flag-tagged PCI
T1 chain: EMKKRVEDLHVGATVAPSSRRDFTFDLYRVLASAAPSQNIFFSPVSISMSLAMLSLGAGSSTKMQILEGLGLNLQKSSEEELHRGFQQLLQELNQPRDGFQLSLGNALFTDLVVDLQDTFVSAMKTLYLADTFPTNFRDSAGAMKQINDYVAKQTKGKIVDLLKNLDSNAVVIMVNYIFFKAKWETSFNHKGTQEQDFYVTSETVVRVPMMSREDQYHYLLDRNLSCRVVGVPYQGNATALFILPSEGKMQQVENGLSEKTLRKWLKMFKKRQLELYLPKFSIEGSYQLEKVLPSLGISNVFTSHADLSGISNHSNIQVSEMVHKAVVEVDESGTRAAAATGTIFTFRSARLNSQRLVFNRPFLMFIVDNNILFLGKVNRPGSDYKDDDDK

B1: PC19G8 (antibody, IgG1, V domains shown)
VH: EVQLQQSGAELVKPGASVKLSCTASGFDIKDTFMHWVKQRPEQGLEWIGRIDYVNGNTKYDPKFQGKATITGDTSSNTAYLQLSSLTSEDTAVYYCARGGYDVREFAYWGQGTLVTVSA
VL: QIVLTQSPAIMSASPGEKVTITCSATSSLIYMHWFQQKPGSSPELWIYSTSNLASGVPARFSGSGSGTSYSLTISRMEAEDAATYYCQQRSSYPFTFGSGTKLEIK
notes: also called clone #19G8; anti-PCI neutralizing antibody
B2: PC23D8 (antibody, IgG2a, V domains shown)
VH: B1 VH
VL: B1 VL
notes: also called anti-PCI neutralizing antibody
B3: PC39C6 (antibody, IgG1, V domains shown)
VH: EVQLQQSGAELVRPGALVKLSCKASGFNIKDYYIHWVKQRPEQGLEWIGRIDLEKGNIIYDPKFQGKDNITADTSSNTAYLQLSSLTSEDTAVYYCARGGYDVPSFAYWGQGTLVTVSA
VL: B1 VL with T26S, L29V, I30S, S41T, E44K
notes: Mouse hybridoma monoclonal, IgG1, purified on Protein G; also called anti-PCI neutralizing antibody
B4: PC23A7 (antibody, IgG2a, V domains shown)
VH: B1 VH with K30R, Y53L, G56V, K63N, G66D, K67R, G72A, S84T
VL: B1 VL with S41T, E44K
notes: Mouse hybridoma monoclonal, IgG2a, purified on Protein G; also called anti-PCI neutralizing antibody
B5: PC31E2 (antibody, V domains shown)
VH: QVQLQQSGAELVKPGASVKMSCKAFGYTFTTYPIEWMKQNHGKSLEWIGKFHPDNDDTNYNEKFKGKAKLTVEKSSSTVYLELSRLTSDDSAVYYCARGHDYDYGMDYWGQGTSVTVSS
VL: DIVLTQSPASLAVSLGQRATISCKASQSVDYDGDSYLNWYQQKPGQPPKLLIYGASNLESGTPARFSGSGSGTDFTLDIHPVEEEDAATYYCQQSNEDPPTFGGGTKLEIT
notes: as for B2

The test addresses T1, PCI-Flag. Put plainly: SPR (BIACORE 2000), PCI-Flag amine-coupled to CM5 chip, antibody injected. The protocol:
PCI-Flag was diluted to 25 μg/ml with 10 mM sodium acetate (pH5.0), and then amine-coupled to a sensor chip CM5 (BIACORE; BR-1000-14) using an amine coupling kit (BIACORE; BR-1000-50) according to the method described in the kit. Approximately 3,000 RU of PCI-Flag was immobilized onto the CM5 chip by this treatment. The kinetic analyses described below were performed on BIACORE 2000 using the sensor chip. […] After the chip was equilibrated with HBS-EP buffer, 40 μl of the antibody solution at each concentration was injected at a flow rate of 20 μl/min. In the association phase, the antibody was injected over two minutes. Then, instead of the antibody, HBS-EP buffer was injected over two minutes in the dissociation phase. After the dissociation phase, 40 μl of 10 mM HCl and then 40 μl of 0.05% SDS were injected continuously to regenerate the sensor chip. The sensorgrams obtained by the procedure described above were superimposed, and the binding rate constant (ka), dissociation rate constant (kd), dissociation constant (KD), and maximal binding (Rmax) were computed using data analysis software (BIAevaluation, ver. 3.0).
For the molecule B1, binding was put at a Kd of 0.126 nM, the koff stood at 2.13e-05 s⁻¹ and the kon was 168000 M⁻¹ s⁻¹.

Turning to B2, the Kd came to 0.293 nM, the koff turned out to be 6.59e-05 s⁻¹ and the kon stood at 225000 M⁻¹ s⁻¹.

B3 displayed a Kd of 5.51 nM, a dissociation rate constant (koff) of 0.000489 s⁻¹ and an association rate constant (kon) of 88800 M⁻¹ s⁻¹.

Molecule B4 displayed a Kd of 0.473 nM, a koff of 7.17e-05 s⁻¹ and an on-rate constant (kon) of 151000 M⁻¹ s⁻¹.

B5 came in with a dissociation constant Kd of 1.79 nM, a koff of 0.000313 s⁻¹ and a kon of 175000 M⁻¹ s⁻¹.
